Target: PU.1 beta-galactosidase fusion (lambda 25.1, Ly25.1) (Mus musculus, UniProt P17433 P17433:1-272)
Experiment: Southwestern blot with multimerized 33-mer; methylation interference protects three G in GAGGAA; lower affinity than PU-1
Conditions: tags: beta-galactosidase fusion, partially purified on anti-beta-gal Sepharose; label: 32P
Procedure: Production of beta-Galactosidase Fusion Protein and Western and Southwestern Analyses Lysogens were prepared from the lambda 25.1 and lambda 24.1 clones as described (Sturm et al., 1988) and the fusion proteins partially purified using anti-beta-galactosidase antibody bound to Sepharose (5 Prime - 3 Prime, Inc., Paoli, Pa.), as described by the manufacturer. Western and Southwestern analyses were carried out as described (Staudt et al., 1988).
Bacterial extracts prepared from lambda-gt11 and lambda 25.1 lysogens were fractionated on a 7.5% SDS-polyacrylamide gel, transferred to nitrocellulose and probed with labeled multimerized 33-mer. Only the lane with the lambda 25.1 extract contained a protein able to bind the probe. […] The positive filter was subsequently treated with rabbit antiserum to beta-galactosidase and mouse anti-rabbit immunoglobulin horseradish peroxidase conjugate. […] The appearance of several bands of lower molecular size are probably the result of degradation of the 150 kDa species. […] Some breakdown of the beta-galactosidase occurred in this sample resulting in a band at about 69 kDa.

B1: MHC class II I-A beta 33-mer (tetramer probe) (dsDNA)
DNA 1: GATCCGTCCCAAGTGAGGAACCAATCAGCATTG
DNA 2: CAATGCTGATTGGTTCCTCACTTGGGACGGATC
- binding result: binds
